B1: Estrogen receptor (Homo sapiens), P03372 (parent)
chain: MTMTLHTKASGMALLHQIQGNELEPLNRPQLKIPLERPLGEVYLDSSKPAVYNYPEGAAYEFNAAAAANAQVYGQTGLPYGPGSEAAAFGSNGLGGFPPLNSVSPSPLMLLHPPPQLSPFLQPHGQQVPYYLENEPSGYTVREAGPPAFYRPNSDNRRQGGRERLASTNDKGSMAMESAKETRYCAVCNDYASGYHYGVWSCEGCKAFFKRSIQGHNDYMCPATNQCTIDKNRRKSCQACRLRKCYEVGMMKGGIRKDRRGGRMLKHKRQRDDGEGRGEVGSAGDMRAANLWPSPLMIKRSKKNSLALSLTADQMVSALLDAEPPILYSEYDPTRPFSEASMMGLLTNLADRELVHMINWAKRVPGFVDLTLHDQVHLLECAWLEILMIGLVWRSMEHPGKLLFAPNLLLDRNQGKCVEGMVEIFDMLLATSSRFRMMNLQGEEFVCLKSIILLNSGVYTFLSSTLKSLEEKDHIHRVLDKITDTLIHLMAKAGLTLQQQHQRLAQLLLILSHIRHMSNKGMEHLYSMKCKNVVPLYDLLLEMLDAHRLHAPTSRGGASVEETDQSHLATAGSTSSHSLQKYYITGEAEGFPATV
partner: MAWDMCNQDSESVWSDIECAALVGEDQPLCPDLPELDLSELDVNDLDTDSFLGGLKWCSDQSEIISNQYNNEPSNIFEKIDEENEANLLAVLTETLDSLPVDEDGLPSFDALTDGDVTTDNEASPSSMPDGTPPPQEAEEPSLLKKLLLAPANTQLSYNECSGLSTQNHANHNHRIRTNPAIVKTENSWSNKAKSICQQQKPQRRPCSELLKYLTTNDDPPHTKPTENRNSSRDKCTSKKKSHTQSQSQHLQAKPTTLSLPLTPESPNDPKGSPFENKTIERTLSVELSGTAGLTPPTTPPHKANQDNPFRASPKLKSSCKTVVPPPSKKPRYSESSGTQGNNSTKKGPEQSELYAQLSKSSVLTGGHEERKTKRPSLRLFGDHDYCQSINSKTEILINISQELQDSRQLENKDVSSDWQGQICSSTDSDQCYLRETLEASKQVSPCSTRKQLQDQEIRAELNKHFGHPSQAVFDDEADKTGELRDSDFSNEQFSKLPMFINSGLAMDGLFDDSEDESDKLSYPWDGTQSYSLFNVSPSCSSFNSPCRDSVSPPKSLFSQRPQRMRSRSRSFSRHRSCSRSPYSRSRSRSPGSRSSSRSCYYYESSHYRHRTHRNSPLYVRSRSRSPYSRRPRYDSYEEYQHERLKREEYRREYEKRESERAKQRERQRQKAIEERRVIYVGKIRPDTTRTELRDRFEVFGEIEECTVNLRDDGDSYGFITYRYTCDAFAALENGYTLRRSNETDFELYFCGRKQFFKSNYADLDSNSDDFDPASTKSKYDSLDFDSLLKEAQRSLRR
B2: Peroxisome proliferator-activated receptor gamma coactivator 1-alpha (Homo sapiens), Q9UBK2 (parent)
chain: B1 partner
partner: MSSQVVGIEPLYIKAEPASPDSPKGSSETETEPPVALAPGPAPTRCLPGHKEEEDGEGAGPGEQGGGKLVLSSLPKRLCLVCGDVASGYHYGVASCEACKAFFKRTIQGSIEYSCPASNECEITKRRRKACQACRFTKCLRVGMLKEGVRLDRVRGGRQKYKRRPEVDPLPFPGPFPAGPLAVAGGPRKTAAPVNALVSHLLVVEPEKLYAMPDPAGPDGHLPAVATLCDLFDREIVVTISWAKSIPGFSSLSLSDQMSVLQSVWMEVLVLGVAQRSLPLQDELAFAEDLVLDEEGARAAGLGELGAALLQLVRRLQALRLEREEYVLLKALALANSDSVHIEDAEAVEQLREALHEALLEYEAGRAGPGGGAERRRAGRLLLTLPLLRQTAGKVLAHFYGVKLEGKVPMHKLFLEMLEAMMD
B3: Steroid hormone receptor ERR1 (Homo sapiens), P11474 (parent)
chain: B2 partner
partner: B1 partner

Variants of: B1
Conditions: with prgc1_human PPARGC1A

Variant | effect of a mutation on the interaction
MTMTLHTKASGMALLHQIQGNELEPLNRPQLKIPLERPLGEVYLDSSKPAVYNYPEGAAYEFNAAAAANAQVYGQTGLPYGPGSEAAAFGSNGLGGFPPLNSVSPSPLMLLHPPPQLSPFLQPHGQQVPYYLENEPSGYTVREAGPPAFYRPNSDNRRQGGRERLASTNDKGSMAMESAKETRYCAVCNDYASGYHYGVWSCEGCKAFFKRSIQGHNDYMCPATNQCTIDKNRRKSCQACRLRKCYEVGMMKGGIRKDRRGGRMLKHKRQRDDGEGRGEVGSAGDMRAANLWPSPLMIKRSKKNSLALSLTADQMVSALLDAEPPILYSEYDPTRPFSEASMMGLLTNLADRELVHMINWAKRVPGFVDLTLHDQMHLLQCAWLEILMIGLVWRSMEHPGKLLFAPNLLLDRNQGKCVEGMVEIFDMLLATSSRFRMMNLQGEEFVCLKSIILLNSGVYTFLSSTLKSLEEKDHIHRVLDKITDTLIHLMAKAGLTLQQQHQRLAQLLLILSHIRHMSNKGMEHLYSMKCKNVVPLYDLLLEMLDAHRLHAPTSRGGASVEETDQSHLATAGSTSSHSLQKYYITGEAEGFPATV [V376M;E380Q] | increasing interaction strength

Variants of: B2
Conditions: with err1_human ESRRA

Variant | effect of a mutation on the interaction
L144A;L210A | disrupting interaction strength
L210A | decreasing interaction strength
L144A | decreasing interaction strength

Variants of: B2
Conditions: with err1_human ESRRA
Remark: another data set of the same source

Variant | effect of a mutation on the interaction
K212R | decreasing interaction strength

Variants of: B2
Conditions: with err1_human ESRRA
Remark: another data set of the same source

Variant | effect of a mutation on the interaction
R204A;R205A | disrupting interaction strength
P202A;Q203A | with no effect

Variants of: B2
Conditions: with err1_human ESRRA
Remark: another data set of the same source

Variant | effect of a mutation on the interaction
L210A | disrupting interaction strength
C207E | disrupting interaction strength
C207S | disrupting interaction strength
Y213A | disrupting interaction strength
L211A | decreasing interaction strength

Variants of: B2
Conditions: with err1_human ESRRA
Remark: another data set of the same source

Variant | effect of a mutation on the interaction
L144A | disrupting interaction strength

Variants of: B3
Conditions: with prgc1_human PPARGC1A

Variant | effect of a mutation on the interaction
MSSQVVGIEPLYIKAEPASPDSPKGSSETETEPPVALAPGPAPTRCLPGHKEEEDGEGAGPGEQGGGKLVLSSLPKRLCLVCGDVASGYHYGVASCEACKAFFKRTIQGSIEYSCPASNECEITKRRRKACQACRFTKCLRVGMLKEGVRLDRVRGGRQKYKRRPEVDPLPFPGPFPAGPLAVAGGPRKTAAPVNALVSHLLVVEPEKLYAMPDPAGPDGHLPAVATLCDLFDREIVVTISWAKSIPGFSSLSLSDQMHVLQSVWMEVLVLGVAQRSLPLQDELAFAEDLVLDEEGARAAGLGELGAALLQLVRRLQALRLEREEYVLLKALALANSDSVHIEDAEAVEQLREALHEALLEYEAGRAGPGGGAERRRAGRLLLTLPLLRQTAGKVLAHFYGVKLEGKVPMHKLFLEMLEAMMD [S259H] | decreasing interaction strength
MSSQVVGIEPLYIKAEPASPDSPKGSSETETEPPVALAPGPAPTRCLPGHKEEEDGEGAGPGEQGGGKLVLSSLPKRLCLVCGDVASGYHYGVASCEACKAFFKRTIQGSIEYSCPASNECEITKRRRKACQACRFTKCLRVGMLKEGVRLDRVRGGRQKYKRRPEVDPLPFPGPFPAGPLAVAGGPRKTAAPVNALVSHLLVVEPEKLYAMPDPAGPDGHLPAVATLCDLFDREIVVTISWAKSIPGFSSLSLSDQMSVLQSVWMEVLVLGVAQRSLPLQDELAFAEDLVLDEEGARAAGLGELGAALLQLVRRLQALRLEREEYVLLKALALANSASVHIEDAEAVEQLREALHEALLEYEAGRAGPGGGAERRRAGRLLLTLPLLRQTAGKVLAHFYGVKLEGKVPMHKLFLEMLEAMMD [D338A] | disrupting interaction strength
MSSQVVGIEPLYIKAEPASPDSPKGSSETETEPPVALAPGPAPTRCLPGHKEEEDGEGAGPGEQGGGKLVLSSLPKRLCLVCGDVASGYHYGVASCEACKAFFKRTIQGSIEYSCPASNECEITKRRRKACQACRFTKCLRVGMLKEGVRLDRVRGGRQKYKRRPEVDPLPFPGPFPAGPLAVAGGPRKTAAPVNALVSHLLVVEPEKLYAMPDPAGPDGHLPAVATLCDLFDREIVVTISWAKSIPGFSSLSLSDQMSVLQSVWMEVLVLGVAQRSLPLQDELAFAEDLVLDEEGARAAGLGELGAALLQLVRALQALRLEREEYVLLKALALANSDSVHIEDAEAVEQLREALHEALLEYEAGRAGPGGGAERRRAGRLLLTLPLLRQTAGKVLAHFYGVKLEGKVPMHKLFLEMLEAMMD [R315A] | disrupting interaction strength

Variants of: B3
Conditions: with prgc1_human PPARGC1A
Remark: another data set of the same source

Variant | effect of a mutation on the interaction
MSSQVVGIEPLYIKAEPASPDSPKGSSETETEPPVALAPGPAPTRCLPGHKEEEDGEGAGPGEQGGGKLVLSSLPKRLCLVCGDVASGYHYGVASCEACKAFFKRTIQGSIEYSCPASNECEITKRRRKACQACRFTKCLRVGMLKEGVRLDRVRGGRQKYKRRPEVDPLPFPGPFPAGPLAVAGGPRKTAAPVNALVSHLLVVEPEKLYAMPDPAGPDGHLPAVATLCDLFDREIVVTISWAKSIPGFSSLSLSDQVSVLESVWMEVLVLGVAQRSLPLQDELAFAEDLVLDEEGARAAGLGELGAALLQLVRRLQALRLEREEYVLLKALALANSDSVHIEDAEAVEQLREALHEALLEYEAGRAGPGGGAERRRAGRLLLTLPLLRQTAGKVLAHFYGVKLEGKVPMHKLFLEMLEAMMD [M258V;Q262E] | disrupting interaction strength
MSSQVVGIEPLYIKAEPASPDSPKGSSETETEPPVALAPGPAPTRCLPGHKEEEDGEGAGPGEQGGGKLVLSSLPKRLCLVCGDVASGYHYGVASCEACKAFFKRTIQGSIEYSCPASNECEITKRRRKACQACRFTKCLRVGMLKEGVRLDRVRGGRQKYKRRPEVDPLPFPGPFPAGPLAVAGGPRKTAAPVNALVSHLLVVEPEKLYAMPDPAGPDGHLPAVATLCDLFDREIVVTISWAKSIPGFSSLSLSDQMSVLQSVWMEVLVLGVAQRSLPLQDELAFAEDLVLDEEGARAAGLGELGAALLQLVRRLQALRLEREEYVLLKALALANSDSVHIEDAEAVEQLREALHEALLEYEAGRAGPGGGAERRRAGRLLLTLPLLRQTAGKVLAHFYGVKLEGKVPMHKLFLEMLEAMMA [D423A] | decreasing interaction strength
MSSQVVGIEPLYIKAEPASPDSPKGSSETETEPPVALAPGPAPTRCLPGHKEEEDGEGAGPGEQGGGKLVLSSLPKRLCLVCGDVASGYHYGVASCEACKAFFKRTIQGSIEYSCPASNECEITKRRRKACQACRFTKCLRVGMLKEGVRLDRVRGGRQKYKRRPEVDPLPFPGPFPAGPLAVAGGPRKTAAPVNALVSHLLVVEPEKLYAMPDPAGPDGHLPAVATLCDLFDREIVVTISWAKSIPGFSSLSLSDQMSVLQSVWMEVLVLGVAQRSLPLQDELAFAEDLVLDEEGARAAGLGELGAALLQLVRRLQALRLEREEYVLLKALALANSDSVAIEDAEAVEQLREALHEALLEYEAGRAGPGGGAERRRAGRLLLTLPLLRQTAGKVLAHFYGVKLEGKVPMHKLFLEMLEAMMD [H341A] | decreasing interaction strength

Variants of: B3
Conditions: with prgc1_human PPARGC1A
Remark: another data set of the same source

Variant | effect of a mutation on the interaction
MSSQVVGIEPLYIKAEPASPDSPKGSSETETEPPVALAPGPAPTRCLPGHKEEEDGEGAGPGEQGGGKLVLSSLPKRLCLVCGDVASGYHYGVASCEACKAFFKRTIQGSIEYSCPASNECEITKRRRKACQACRFTKCLRVGMLKEGVRLDRVRGGRQKYKRRPEVDPLPFPGPFPAGPLAVAGGPRKTAAPVNALVSHLLVVEPEKLYAMPDPAGPDGHLPAVATLCDLFDREIVVTISWAKSIPGFSSLSLSDQMSVLQSVWMEVLVLGVAQRSLPLQDELAFAEDLVLDEEGARAAGLGELGAALLQLVRRLQALRLEREEYVLLKALALANSDSVHIEDAEAVEQLREALHEALLEYEAGRAGPGGGAERRRAGRLLLTLPLLRQTAGKVLAHFYGVKLEGKVPMHKLFLEMLEAMMA [D423A] | with no effect

Variants of: B3
Conditions: with prgc1_human PPARGC1A
Remark: another data set of the same source

Variant | effect of a mutation on the interaction
MSSQVVGIEPLYIKAEPASPDSPKGSSETETEPPVALAPGPAPTRCLPGHKEEEDGEGAGPGEQGGGKLVLSSLPKRLCLVCGDVASGYHYGVASCEACKAFFKRTIQGSIEYSCPASNECEITKRRRKACQACRFTKCLRVGMLKEGVRLDRVRGGRQKYKRRPEVDPLPFPGPFPAGPLAVAGGPRKTAAPVNALVSHLLVVEPEKLYAMPDPAGPDGHLPAVATLCDLFDREIVVTISWAKSIPGFSSLSLSDQMSVLQSVWMEVLVLGVAQRSLPLQDELAFAEDLVLDEEGARAAGLGELGAALLQLVRRLQALRLEREEYVLLKALALANSDSVHIADAEAVEQLREALHEALLEYEAGRAGPGGGAERRRAGRLLLTLPLLRQTAGKVLAHFYGVKLEGKVPMHKLFLEMLEAMMD [E343A] | decreasing interaction strength

Variants of: B3
Conditions: with prgc1_human PPARGC1A
Remark: another data set of the same source

Variant | effect of a mutation on the interaction
MSSQVVGIEPLYIKAEPASPDSPKGSSETETEPPVALAPGPAPTRCLPGHKEEEDGEGAGPGEQGGGKLVLSSLPKRLCLVCGDVASGYHYGVASCEACKAFFKRTIQGSIEYSCPASNECEITKRRRKACQACRFTKCLRVGMLKEGVRLDRVRGGRQKYKRRPEVDPLPFPGPFPAGPLAVAGGPRKTAAPVNALVSHLLVVEPEKLYAMPDPAGPDGHLPAVATLCDLFDREIVVTISWAKSIPGFSSLSLSDQMSVLQSVWMEVLVLGVAQRSLPLQDELAFAEDLVLDEEGARAAGLGELGAALLQLVRRLQALRLEREEYVLLKALALANSDSVHIADAEAVEQLREALHEALLEYEAGRAGPGGGAERRRAGRLLLTLPLLRQTAGKVLAHFYGVKLEGKVPMHKLFLEMLEAMMD [E343A] | with no effect

— IntAct's records for PubMed 18441008
